The values that follow come from US20090148464A1.

In the test the target is His-tagged recombinant MIF (macrophage migration inhibitory factor), expressed in Escherichia coli from pQE30. Description: SPR, BIAcore 2000, His-tagged MIF on Sensor Chip NTA, TRX as analyte, 1:1 binding with drifting baseline model. (Surface plasmon resonance follows binding to a sensor surface in real time, without labels.)

As a reminder, the Kd is the free concentration of one partner at which half of the binding sites on the other are occupied at equilibrium, for simple one-to-one binding. What is called kon is the rate constant with which the complex forms.

Chain of His-tagged recombinant MIF (macrophage migration inhibitory factor), expressed in Escherichia coli from pQE30 (P14174 2-115): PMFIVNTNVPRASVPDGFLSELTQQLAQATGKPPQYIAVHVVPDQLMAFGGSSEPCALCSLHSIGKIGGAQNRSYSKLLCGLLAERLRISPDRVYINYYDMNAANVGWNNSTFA

Take Recombinant TRX (Ajinomoto Co., Inc.): the Kd was 9.96 nM and the kon came to 120 M⁻¹ s⁻¹.
